According to the supplement of paper PMC9112550, “Optimization of the antimicrobial peptide Bac7 by deep mutational scanning” (BMC Biology, 2022):

Tested on: Escherichia coli TOP10
Experiment: shrunken log2 fold change of peptide-encoding DNA abundance (4.5 h post-induction vs induction); higher = less antimicrobial activity (less host growth inhibition)
Settings: time post-induction: 4.5 h; library: site-saturation at positions 5, 18, 19, 20
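Also: peptides expressed intracellularly from a pBAD plasmid library in pooled LB shake-flask culture, induced with 0.3% L-arabinose, DNA abundance read by NGS, three biological replicates, DESeq2 with apeglm shrinkage.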

Row | Sequence | shrunken log2 fold change
1 | RRIRQRPPRLPRPRPRPIFVPRP | -0.217
2 | RRIRVRPPRLPRPRPRPCRRPRP | -0.299
3 | RRIRMRPPRLPRPRPRPQYKPRP | -0.0699
4 | RRIRKRPPRLPRPRPRPPAIPRP | 0.657
5 | RRIRARPPRLPRPRPRPEPQPRP | 0.862
6 | RRIRWRPPRLPRPRPRPKTRPRP | 0.654
7 | RRIRERPPRLPRPRPRPRWEPRP | 0.0891
8 | RRIRYRPPRLPRPRPRPGFNPRP | -0.46
9 | RRIRDRPPRLPRPRPRPDRCPRP | -0.149
10 | RRIRKRPPRLPRPRPRPRHVPRP | 0.0906
11 | RRIRGRPPRLPRPRPRPNSDPRP | -0.0204
12 | RRIRRRPPRLPRPRPRPPHRPRP | 1.36
13 | RRIRDRPPRLPRPRPRPMYRPRP | -0.0107
14 | RRIRDRPPRLPRPRPRPGGEPRP | 1.41
15 | RRIRERPPRLPRPRPRPKQQPRP | -0.0499
16 | RRIRFRPPRLPRPRPRPHHYPRP | -0.681
17 | RRIRPRPPRLPRPRPRPKHSPRP | -0.155
18 | RRIRTRPPRLPRPRPRPSTEPRP | -0.456
19 | RRIRNRPPRLPRPRPRPAPRPRP | 1.6
20 | RRIRCRPPRLPRPRPRPCIAPRP | -0.11
21 | RRIRDRPPRLPRPRPRPVKHPRP | -0.0698
22 | RRIRSRPPRLPRPRPRPPENPRP | 0.679
23 | RRIRVRPPRLPRPRPRPCYGPRP | -0.259

Row | Sequence | shrunken log2 fold change
24 | RRIRMRPPRLPRPRPRPPPCPRP | 1.73
25 | RRIRYRPPRLPRPRPRPIPMPRP | -0.807
26 | RRIRYRPPRLPRPRPRPFSIPRP | -0.000407
27 | RRIRWRPPRLPRPRPRPNMCPRP | -0.0387
28 | RRIRKRPPRLPRPRPRPSYEPRP | -0.304
29 | RRIRSRPPRLPRPRPRPPSWPRP | 0.482
30 | RRIRARPPRLPRPRPRPYLHPRP | -1.18
31 | RRIRFRPPRLPRPRPRPRHQPRP | 0.0747
32 | RRIRARPPRLPRPRPRPEGKPRP | 0.702
33 | RRIRIRPPRLPRPRPRPGCHPRP | -0.602
34 | RRIRDRPPRLPRPRPRPSHNPRP | -0.314
35 | RRIRERPPRLPRPRPRPGEMPRP | -0.0373
36 | RRIRNRPPRLPRPRPRPFGQPRP | -0.282
37 | RRIRQRPPRLPRPRPRPESWPRP | 0.461
38 | RRIRGRPPRLPRPRPRPRYMPRP | -0.0195
39 | RRIRLRPPRLPRPRPRPNPMPRP | 0.0102
40 | RRIRNRPPRLPRPRPRPNIVPRP | -0.115
41 | RRIRLRPPRLPRPRPRPFVIPRP | -0.214
42 | RRIRPRPPRLPRPRPRPHNDPRP | -0.566
43 | RRIRLRPPRLPRPRPRPSTCPRP | -0.179
44 | RRIRMRPPRLPRPRPRPPLIPRP | 0.242
45 | RRIRDRPPRLPRPRPRPEIFPRP | -0.0297
46 | RRIRYRPPRLPRPRPRPKSSPRP | -0.147

Row | Sequence | shrunken log2 fold change
47 | RRIRPRPPRLPRPRPRPVSVPRP | 0.0528
48 | RRIRLRPPRLPRPRPRPMVSPRP | -0.0017
49 | RRIRIRPPRLPRPRPRPNGKPRP | -0.229
50 | RRIRIRPPRLPRPRPRPWNPPRP | -0.106
51 | RRIRHRPPRLPRPRPRPHVYPRP | -0.939
52 | RRIRIRPPRLPRPRPRPDTMPRP | -0.272
53 | RRIRKRPPRLPRPRPRPEHMPRP | 0.829
54 | RRIRFRPPRLPRPRPRPSRSPRP | -0.104
55 | RRIRQRPPRLPRPRPRPHTFPRP | -0.174
56 | RRIRFRPPRLPRPRPRPHMMPRP | -0.283
57 | RRIRKRPPRLPRPRPRPNNIPRP | -0.477
58 | RRIRQRPPRLPRPRPRPAKQPRP | 0.0569
59 | RRIRMRPPRLPRPRPRPMLQPRP | 0.196
60 | RRIRQRPPRLPRPRPRPFSEPRP | -0.477
61 | RRIRTRPPRLPRPRPRPLTSPRP | -0.255
62 | RRIRKRPPRLPRPRPRPCEWPRP | -0.0222
63 | RRIRSRPPRLPRPRPRPWSIPRP | 0.0338
64 | RRIRGRPPRLPRPRPRPKIHPRP | 0.373
65 | RRIRFRPPRLPRPRPRPVFHPRP | -0.598
66 | RRIRWRPPRLPRPRPRPIGRPRP | -0.0158
67 | RRIRNRPPRLPRPRPRPWVNPRP | -0.00663
68 | RRIRHRPPRLPRPRPRPMTWPRP | 0.148
69 | RRIRYRPPRLPRPRPRPPDHPRP | 0.0391

Row | Sequence | shrunken log2 fold change
70 | RRIRCRPPRLPRPRPRPMDYPRP | -0.181
71 | RRIRNRPPRLPRPRPRPRIPPRP | 0.157
72 | RRIRPRPPRLPRPRPRPSLMPRP | -0.155
73 | RRIRSRPPRLPRPRPRPAHRPRP | -0.0259
74 | RRIRWRPPRLPRPRPRPPSHPRP | 0.163
75 | RRIRIRPPRLPRPRPRPMFNPRP | -0.923
76 | RRIRDRPPRLPRPRPRPYTGPRP | -1.03
77 | RRIRGRPPRLPRPRPRPCRCPRP | 0.107
78 | RRIRIRPPRLPRPRPRPQLPPRP | -0.0273
79 | RRIRGRPPRLPRPRPRPHFMPRP | 0.152
80 | RRIRQRPPRLPRPRPRPNQTPRP | -0.0346
81 | RRIRYRPPRLPRPRPRPNQMPRP | -0.194
82 | RRIRRRPPRLPRPRPRPVNKPRP | 0.169
83 | RRIRTRPPRLPRPRPRPAMCPRP | 0.131
84 | RRIRARPPRLPRPRPRPDNAPRP | 0.311
85 | RRIRERPPRLPRPRPRPDGSPRP | 0.0355
86 | RRIRMRPPRLPRPRPRPWGSPRP | 0.0578
87 | RRIRPRPPRLPRPRPRPIPHPRP | -0.163
88 | RRIRCRPPRLPRPRPRPYVEPRP | -0.942
89 | RRIRPRPPRLPRPRPRPLNDPRP | -0.298
90 | RRIRTRPPRLPRPRPRPDFEPRP | 0.0498
91 | RRIRRRPPRLPRPRPRPNKKPRP | -0.272
